Laboratory results reported in the supplement of paper PMC10126150.
± gives the standard deviation of the averaged measurements.

System: ATP
Assay: switch fluorescence ratio, 500 uM ATP over buffer (Cy3 cluster intensity, sum of 5 cycles each) (fold (ratio)); higher = stronger signal-on switching upon ATP binding; sequences stand for … in TCGTCGGCAGCGTCAGATGTGTATAAGAGACAGTTTTTTTTTTTTTTTTTTTTTTTTT…TC
Details: aptamer strand: ATP DNA aptamer (quencher-CACCTGGGGGAGTATTGCGGAGGAAGG + anchor), 100 nM annealed; ATP concentration: 500 uM
Summary of the method: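 For every switch-domain sequence, the fluorescence ratio is the mean of per-cluster values, each being summed target-cycle Cy3 intensity over summed buffer-cycle Cy3 intensity. Clusters outside 100-1000 RFU were excluded. On a modified Illumina MiSeq flow-cell, the Cy3-labelled switching-strand clusters were annealed to 100 nM quencher-labelled ATP aptamer, imaged in selection buffer and then after 15 min with 500 uM ATP at 22 °C. Five such cycles were run, with NaOH stripping and re-annealing between them.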
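Note: ATP exposure 15 min at 22 °C before imaging.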

Sequence | switch fluorescence ratio
TAATTGGCAA | 1.004 ± 0.0017
TAATTGGGAA | 0.997 ± 0.035
TAATTGGGGT | 0.994 ± 0.018
TAATTGGTGG | 1.01 ± 0.029
TAATTGTGCT | 0.979 ± 0.026
TAATTGTTGT | 1.003 ± 0.005
TAATTTATAC | 1.053 ± 0.0054
TAATTTCTAC | 1.005 ± 0.0054
TAATTTCTTA | 0.996 ± 0.014
TAATTTCTTG | 1.013 ± 0.0018
TAATTTGCGT | 1 ± 0.019
TAATTTGTGC | 1.01 ± 0.044
TAATTTGTGG | 0.995 ± 0.023
TAATTTTAGG | 0.996 ± 0.012
TAATTTTCCG | 1.02 ± 0.043
TAATTTTTAA | 0.99 ± 0.029
TACAAAGAGT | 1.04 ± 0.025
TACAAGAAGG | 1.015 ± 0.0066
TACAATTTTG | 1.013 ± 0.0017
TACACCGTCA | 1.08 ± 0.023
TACAGAGTTT | 0.977 ± 0.015
TACAGCTGCG | 1.007 ± 0.0015
TACAGCTGTG | 0.9865 ± 0.0083
TACAGTTGGC | 1.03 ± 0.084
TACATACTCT | 1.29 ± 0.023
TACATAGGTT | 1.048 ± 0.006

Sequence | switch fluorescence ratio
TACATGGGTG | 1.01 ± 0.054
TACATGTGCT | 0.996 ± 0.035
TACATTGACG | 1.025 ± 0.0089
TACCAAAGGT | 1.02 ± 0.031
TACCAAGGGA | 0.991 ± 0.00097
TACCACGTTG | 1 ± 0.009
TACCAGCCGA | 1.06 ± 0.043
TACCATGGCG | 0.9983 ± 0.0058
TACCCAAAAT | 1.1 ± 0.15
TACCCAGATT | 1.66 ± 0.98
TACCCATTAC | 1.72 ± 0.041
TACCCGGACA | 1.091 ± 0.0053
TACCGGGCAC | 1.11 ± 0.03
TACCGTATTT | 1.04 ± 0.027
TACCTAGAAC | 1.07 ± 0.056
TACCTGAAAA | 0.985 ± 0.022
TACCTGCAGC | 1.12 ± 0.064
TACCTGCCGG | 1.08 ± 0.026
TACCTTGAGC | 0.9999 ± 0.0034
TACGAAATGT | 1.041 ± 0.0098
TACGAACTAT | 1.33 ± 0.052
TACGAATAGA | 1.056 ± 0.0097
TACGAATATT | 1.025 ± 0.0046
TACGACGGGC | 1.57 ± 0.5
TACGAGCCAC | 1.31 ± 0.032
TACGAGCCGC | 0.989 ± 0.057

Sequence | switch fluorescence ratio
TACGAGGTTG | 1 ± 0.02
TACGAGTCGT | 1.01 ± 0.022
TACGATGACT | 1.19 ± 0.11
TACGATGAGT | 0.996 ± 0.02
TACGATGGTA | 0.9792 ± 0.0049
TACGCCGGAA | 1.33 ± 0.37
TACGCTGCAG | 1.05 ± 0.049
TACGGCCGAG | 1 ± 0.0029
TACGGCGGGG | 1.02 ± 0.047
TACGGGATGG | 0.989 ± 0.029
TACGGGCGGA | 1.02 ± 0.034
TACGGGGGAT | 1.02 ± 0.054
TACGGGTATA | 1.01 ± 0.025
TACGGTGGGT | 0.982 ± 0.032
TACGTACGTT | 1.41 ± 0.062
TACGTAGGCA | 1.073 ± 0.0077
TACGTGCATA | 1.122 ± 0.0033
TACGTGGCTG | 1.05 ± 0.073
TACGTGGTAG | 1.06 ± 0.05
TACGTTGAGC | 1.02 ± 0.02
TACTAACCTT | 1.43 ± 0.18
TACTAATGTT | 1.03 ± 0.044
TACTAGGCTG | 0.992 ± 0.081
TACTATATGG | 1.03 ± 0.011
TACTATGTGG | 1.013 ± 0.0014
TACTCCGTTT | 2.15 ± 0.34

Sequence | switch fluorescence ratio
TACTCGAGTT | 0.977 ± 0.015
TACTCGCCGT | 1.053 ± 0.0064
TACTCGGGGT | 1.004 ± 0.0064
TACTCTGGTG | 1.43 ± 0.019
TACTGACGGT | 1.4 ± 0.032
TACTGCTCTA | 1.022 ± 0.01
TACTGTATTG | 1.03 ± 0.13
TACTGTGGGT | 0.9726 ± 0.0035
TACTGTGTCT | 0.98144 ± 0.00053
TACTTAATGT | 1.032 ± 0.0033
TACTTACTAA | 1.19 ± 0.036
TACTTAGCCC | 1.07 ± 0.022
TACTTGAGTA | 1.0026 ± 0.00022
TACTTGATCT | 1.001 ± 0.0033
TACTTGGGAG | 1.027 ± 0.0036
TACTTGTTTT | 1 ± 0.033
TACTTTCGTA | 0.983 ± 0.011
TACTTTGCTC | 1.03 ± 0.016
TACTTTGGTT | 0.975 ± 0.038
TAGAAAAAGC | 0.9717 ± 0.0093
TAGAAACGAG | 1.02 ± 0.087
TAGAAAGTGC | 1.02 ± 0.099
TAGAAATACT | 1.54 ± 0.2
TAGAAATGGT | 0.994 ± 0.041
TAGAACTGGG | 1.05 ± 0.037
TAGAAGGAAA | 0.9997 ± 0.0017

Sequence | switch fluorescence ratio
TAGAAGGAAT | 1.05 ± 0.044
TAGAAGTGCG | 1.01 ± 0.041
TAGAATGGC | 1.01 ± 0.054
TAGAATGGCT | 0.9907 ± 0.0057
TAGAATGTT | 1.01 ± 0.015
TAGAATTACT | 1.05 ± 0.056
TAGAATTCTT | 0.997 ± 0.078
TAGAATTTTT | 0.998 ± 0.017
TAGACAGGGG | 1 ± 0.037
TAGACGAAAA | 1.03 ± 0.024
TAGACGGATT | 1.04 ± 0.066
TAGACTCGGT | 0.993 ± 0.053
TAGACTGGGG | 0.966 ± 0.11
TAGACTGGTG | 1.01 ± 0.017
TAGACTTGTT | 0.996 ± 0.02
TAGAGAGGGA | 1.04 ± 0.096
TAGAGAGGGT | 0.995 ± 0.035
TAGAGATTTT | 1 ± 0.046
TAGAGGAGTT | 0.951 ± 0.051
TAGAGGATCA | 1 ± 0.056
TAGAGGGAGG | 0.967 ± 0.014
TAGAGGGCAG | 1.03 ± 0.023
TAGAGGGGGG | 0.985 ± 0.038
TAGAGGTGTG | 0.99 ± 0.019
TAGAGTTGGG | 0.986 ± 0.015
TAGATAGAGG | 0.961 ± 0.016

Sequence | switch fluorescence ratio
TAGATATTGG | 1.01 ± 0.016
TAGATCATGC | 0.994 ± 0.024
TAGATCTTAC | 1.05 ± 0.046
TAGATGACGG | 1.01 ± 0.041
TAGATGCCAG | 1.07 ± 0.039
TAGATGGGAT | 0.976 ± 0.014
TAGATGGGGA | 0.977 ± 0.035
TAGATTCTGT | 0.9951 ± 0.0032
TAGATTGTGT | 0.998 ± 0.027
TAGATTTGGG | 0.967 ± 0.0089
TAGATTTT | 0.9953 ± 0.007
TAGCAATTAT | 1.81 ± 0.085
TAGCAATTTG | 1.05 ± 0.053
TAGCAGTGGG | 0.973 ± 0.015
TAGCCCTGCT | 1.033 ± 0.0087
TAGCCGATGG | 0.994 ± 0.027
TAGCCTAGTT | 0.963 ± 0.022
TAGCGCAATT | 1.74 ± 0.22
TAGCGGAAAA | 1.018 ± 0.0026
TAGCGGAGGC | 1.03 ± 0.03
TAGCGGGCTT | 0.983 ± 0.025
TAGCGTAAAT | 0.9913 ± 0.0049
TAGCTAGTAT | 1.63 ± 0.95
